Legend:
Assay in all cases: co-IP
[1] = target: Plk4-EGFP A26 (Drosophila) (UniProt O97143)
[2] = target: Plk4-EGFP A18 (Drosophila) (UniProt O97143)
[3] = target: Plk4-EGFP A15 (Drosophila) (UniProt O97143)
[4] = target: Plk4-EGFP A16 (Drosophila) (UniProt O97143)
[5] = target: Plk4-EGFP A19 (Drosophila) (UniProt O97143)
[6] = target: Plk4-EGFP A17 (Drosophila) (UniProt O97143)
[7] = target: Plk4-EGFP A20 (Drosophila) (UniProt O97143)

## Slimb (F-box protein of the SCF ubiquitin ligase) (natural protein)
[1]
  fold reduction in the amount of associated Slimb: 5 fold
[2]
  further fold decrease of Slimb binding (beyond A14): 2 fold
[3]
  further fold decrease of Slimb binding (beyond A14): 2 fold
[4]
  further fold decrease of Slimb binding (beyond A14): 2 fold
[5]
  further fold decrease of Slimb binding (beyond A14): 2 fold
[6]
  further fold decrease of Slimb binding (beyond A14): 2 fold
[7]
  further fold decrease of Slimb binding (beyond A14): 2 fold
